Residue numbers refer to the chain shown, from its start.
B1: IgG-Fc-14 (VHH)
VHH: QVQLQESGGGLVQTGGSLRLSCSASGGTFETYAMGWFRQAPGKEREFVGSTNWKSERTYVADSVKGRFTISRDNGQYTAYLQMTSLKPEDTAVYFCVARSFGTGQWDYWGQGTQVTVSS
B2: IgG-Fc-11 (VHH)
VHH: QVQLQESGGGLVQAGGSLRLSCAVSGRTFSTYAMGWFRQAPGKEREFVGSANWKSGSTYLVDSVKGRFTISGDNAHDTVHLQMTSLKPEDTGVYFCVARSFGTGQWDYWGQGTQVTVSS
B3: IgG-Fc-12 (VHH)
VHH: B2 VHH with A51I, W53F, T58I, V61A, H76Q, D77N, V79A, H80Y, G92A, F95L
B4: IgG-Fc-13 (VHH)
VHH: QVQLQESGGGLVQAGGSLRLSCAASGDTFSTYAMGWFRQAPGKEREFVGRIVRGTESTYLIDSVKGRFAISRDNAQNTVYLQMTSLKPEDTAVYFCVARSFGAGQWDYWGQGTQVTVSS
B5: IgG-Fc-15 (VHH)
VHH: QVQLQESGGGLVQAGGSLRLSCAVSGRGFSTYAMGWFRQAPGKEREFVGSANWKSGSIYVADSVKGRFTISNDNAQNTVYLQMSSLKPEDTAVYYCVARSFGTGQWDYWGQGTQVTVSS

molecular target: Human IgG, Fc fragment (human); experiment: method not given

Ka, > 4e+09 M⁻¹:
B1, B2, B3, B4, B5

From patent US20190177434A1
